Results as given in paper PMC6333238, “The biosynthetic implications of late-stage condensation domain selectivity during glycopeptide antibiotic biosynthesis” (Chemical Science, 2018).

System: T1, N[C@H](C(=O)O)c1cc(O)cc(O)c1
T1 construct: full-length final NRPS module C-A-PCP-X-TE, MBP fusion (pET-MBP-1c), Ni-NTA and SEC, E. coli, co-expressed with Tcp17; holo form (PCP loaded with phosphopantetheine by Sfp R4-4); with MbtH-like protein Tcp17
Assay: coupled PPi-release A-domain assay (PPi-PFK/aldolase/TPI/GDH, NADH)
Assay type: biochemical, Actinoplanes teichomyceticus
Details: holo form, 0.5 mM ATP, 1 mM MgCl2, pH 7.4, 0.1 mM EDTA, enzyme 1 μM

Sequence of Tcp12 (Actinoplanes teichomyceticus) (chain, as listed by the source): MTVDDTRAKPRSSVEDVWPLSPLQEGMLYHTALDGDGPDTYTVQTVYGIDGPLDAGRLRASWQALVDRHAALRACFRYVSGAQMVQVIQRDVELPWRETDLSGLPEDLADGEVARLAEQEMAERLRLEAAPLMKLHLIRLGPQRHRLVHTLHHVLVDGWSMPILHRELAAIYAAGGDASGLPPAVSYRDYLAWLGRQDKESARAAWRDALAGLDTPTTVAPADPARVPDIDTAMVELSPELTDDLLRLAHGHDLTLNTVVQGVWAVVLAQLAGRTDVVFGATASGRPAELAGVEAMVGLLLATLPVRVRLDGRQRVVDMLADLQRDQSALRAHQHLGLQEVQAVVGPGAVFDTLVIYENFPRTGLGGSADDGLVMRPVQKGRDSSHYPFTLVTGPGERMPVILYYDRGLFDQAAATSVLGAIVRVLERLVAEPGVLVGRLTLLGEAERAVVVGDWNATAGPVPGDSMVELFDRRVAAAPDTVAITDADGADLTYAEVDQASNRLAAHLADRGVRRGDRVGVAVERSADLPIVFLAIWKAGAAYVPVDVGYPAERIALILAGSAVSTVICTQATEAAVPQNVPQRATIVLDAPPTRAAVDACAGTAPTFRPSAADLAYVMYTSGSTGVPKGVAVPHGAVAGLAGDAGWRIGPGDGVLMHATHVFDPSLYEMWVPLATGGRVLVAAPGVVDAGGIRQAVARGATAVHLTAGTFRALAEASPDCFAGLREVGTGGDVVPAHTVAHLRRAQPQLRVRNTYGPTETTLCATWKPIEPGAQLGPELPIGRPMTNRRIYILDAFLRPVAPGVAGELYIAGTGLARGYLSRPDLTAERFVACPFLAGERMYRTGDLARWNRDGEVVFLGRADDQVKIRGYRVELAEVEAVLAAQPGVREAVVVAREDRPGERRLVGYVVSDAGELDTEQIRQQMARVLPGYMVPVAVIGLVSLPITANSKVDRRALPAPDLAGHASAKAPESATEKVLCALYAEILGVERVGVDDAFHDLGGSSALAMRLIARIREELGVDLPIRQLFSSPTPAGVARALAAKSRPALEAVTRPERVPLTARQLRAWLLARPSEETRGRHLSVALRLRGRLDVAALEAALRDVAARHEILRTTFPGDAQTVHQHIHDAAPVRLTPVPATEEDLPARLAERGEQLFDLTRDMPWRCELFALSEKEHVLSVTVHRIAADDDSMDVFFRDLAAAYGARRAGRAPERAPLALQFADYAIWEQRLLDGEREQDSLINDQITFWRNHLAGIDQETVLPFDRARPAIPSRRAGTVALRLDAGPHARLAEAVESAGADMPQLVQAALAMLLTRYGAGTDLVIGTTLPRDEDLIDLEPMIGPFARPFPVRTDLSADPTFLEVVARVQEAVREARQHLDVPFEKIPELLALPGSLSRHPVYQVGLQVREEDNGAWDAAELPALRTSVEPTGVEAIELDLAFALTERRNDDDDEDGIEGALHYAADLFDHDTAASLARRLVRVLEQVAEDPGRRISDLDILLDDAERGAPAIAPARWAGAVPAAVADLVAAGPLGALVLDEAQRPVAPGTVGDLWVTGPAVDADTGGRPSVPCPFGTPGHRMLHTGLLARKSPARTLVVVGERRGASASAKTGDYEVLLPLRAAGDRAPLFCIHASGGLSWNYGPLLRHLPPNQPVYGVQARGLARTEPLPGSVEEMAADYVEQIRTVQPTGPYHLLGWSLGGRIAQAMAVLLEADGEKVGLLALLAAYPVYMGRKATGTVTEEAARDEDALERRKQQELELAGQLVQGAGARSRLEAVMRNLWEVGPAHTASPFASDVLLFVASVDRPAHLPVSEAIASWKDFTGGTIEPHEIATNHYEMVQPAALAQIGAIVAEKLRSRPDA

Tcp12 (Actinoplanes teichomyceticus) was tested, and the Km was 4 ± 0.1 µM and the kcat was 0.01867 ± 0.000167 s⁻¹.
